Laboratory results published in patent US20220204640A1 (Genentech, published 2022).

Experiments:
[1] = target: T1, TAT211 polypeptide on the surface of cells (human, UniProt O95436 1-690); assay: Scatchard analysis on cells, IgG
T1 construct: Expressed endogenously (OVCAR-3, OVCAR4, Igrov1, P828, P701sc20) or recombinantly (293/TAT211) on the cell surface
T1 sequence: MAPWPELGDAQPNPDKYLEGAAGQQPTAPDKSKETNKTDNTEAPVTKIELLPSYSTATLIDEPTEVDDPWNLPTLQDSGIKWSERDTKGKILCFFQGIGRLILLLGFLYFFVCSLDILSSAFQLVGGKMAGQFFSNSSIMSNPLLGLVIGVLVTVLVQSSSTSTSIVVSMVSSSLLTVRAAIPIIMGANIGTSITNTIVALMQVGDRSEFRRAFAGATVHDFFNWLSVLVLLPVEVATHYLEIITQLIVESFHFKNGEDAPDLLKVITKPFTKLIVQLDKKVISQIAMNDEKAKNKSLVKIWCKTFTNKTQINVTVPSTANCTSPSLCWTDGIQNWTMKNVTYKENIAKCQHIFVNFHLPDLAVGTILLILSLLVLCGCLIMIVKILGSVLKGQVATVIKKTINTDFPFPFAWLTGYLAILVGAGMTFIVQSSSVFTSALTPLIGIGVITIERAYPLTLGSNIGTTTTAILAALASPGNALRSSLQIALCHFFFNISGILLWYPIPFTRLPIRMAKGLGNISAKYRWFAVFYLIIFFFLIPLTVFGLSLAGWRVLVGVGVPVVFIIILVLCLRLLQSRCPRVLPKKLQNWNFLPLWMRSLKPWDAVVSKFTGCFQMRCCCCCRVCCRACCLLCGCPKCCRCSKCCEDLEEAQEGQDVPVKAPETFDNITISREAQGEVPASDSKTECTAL

[2] = target: T2, CHO derived TAT211 extracellular domain (glycosylated, immunoadhesin / Fc fusion) (human, UniProt O95436 234-362, glycosylated (CHO)); assay: surface plasmon resonance for the Fab, compared with mu10H1
T2 construct: not shown: Fc part of the immunoadhesin
T2 sequence: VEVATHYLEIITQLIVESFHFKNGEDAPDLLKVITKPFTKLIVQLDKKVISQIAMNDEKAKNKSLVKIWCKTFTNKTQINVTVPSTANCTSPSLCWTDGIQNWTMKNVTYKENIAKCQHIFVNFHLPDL

[3] = target: T2, CHO derived TAT211 extracellular domain …; assay: surface plasmon resonance (Biacore), TAT211 extracellular domain immobilized
Description: TAT211 extracellular domain (glycosylated) was immobilized (approximately 100-400 RU, in 10 mM Sodium Acetate pH 4.8 on a CM5 sensor chip) and the 10H1 antibody variant served as the analyte (injected at a flow rate of 30 μL/min, using a 2-fold serial dilution of 4 to 1000 nM in PBST). Each sample was analyzed with 4-minute association and 10-minute disassociation. After each injection the chip was regenerated using 10 mM Glycine pH 1.7.

[4] = target: T1, TAT211 polypeptide on the surface of …; assay: Scatchard analysis on P828 cells expressing TAT211; P828 cells
[5] = target: T1, TAT211 polypeptide on the surface of …; assay: Scatchard analysis on Igrov1 cells expressing TAT211; Igrov1 cells
[6] = target: T1, TAT211 polypeptide on the surface of …; assay: Scatchard analysis on OVCAR4 cells expressing TAT211; OVCAR4 cells
[7] = target: T1, TAT211 polypeptide on the surface of …; assay: Scatchard analysis on P701sc20 cells expressing TAT211; P701sc20 cells

B1: humanized anti-TAT211 antibody 10H1.11.4B (IgG) (antibody, V domains shown)
VH: EVQLVESGGGLVQPGGSLRLSCAASGFSFSDFAMSWVRQAPGKGLEWVATIGRVAFHTYYPDSMKGRFTISRDNSKNTLYLQMNSLRAEDTAVYYCARHRGFDVGHFDFWGQGTLVTVSS
VL: DIQMTQSPSSLSASVGDRVTITCRSSETLVHSSGNTYLEWYQQKPGKAPKLLIYRVSNRFSGVPSRFSGSGSGTDFTLTISSLQPEDFATYYCFQGSFNPLTFGQGTKVEIKR
B1: binds [1].

B2: 10H1-graft as a Fab (Fab, V domains shown)
VH: EVQLVESGGGLVQPGGSLRLSCAASGFSFSDFAMSWVRQAPGKGLEWVATIGRVASHTYYPDSMKGRFTISRDNSKNTLYLQMNSLRAEDTAVYYCVRHRGFDVGHFDFWGQGTLVTVSS
VL: DIQMTQSPSSLSASVGDRVTITCRSSETLVHSNGNTYLEWYQQKPGKAPKLLIYRVSNRFSGVPSRFSGSGSGTDFTLTISSLQPEDFATYYCFQGSHNPLTFGQGTKVEIKR
notes: Fab expressed in E. coli from the phage display vector; also called 10H1 anti-TAT211 grafted humanized antibody
B2 was tested, and the “fold loss of affinity relative to the mu10H1 hybridoma antibody” value [2] was roughly 2 fold and the Kd [3] was 0.074 µM.

B3: murine monoclonal antibody 10H1 (antibody, V domains shown)
VH: EVMLVESGGGLVRPGGSLKVSCAASGFSFSDFAMSWVRRTPDKRLEWVATIGRVASHTYYPDSMKGRFTISRDNAKNTLYLQMNSLRSDDTAIYYCVRHRGFDVGHFDFWGQGTLLTVSA
VL: DILMTQTPLSLPVSLGDQASISCRSSETLVHSNGNTYLEWYLQKLGQPPKLLIYRVSNRFSGVPDRFSGSGSGTDFTLKISRLEAEDLGVYYCFQGSHNPLTFGAGTKVEIKR
notes: Murine hybridoma IgG; also called mu10H1; murine 10H1
B3 showed a Kd [4] of 0.036 µM, a Kd [5] of 0.061 µM and a Kd [6] of 0.037 µM. It also gave a Kd [7] of 0.059 µM.
